Test results: article PMC10159624
Several values for one entry are separate records, joined by “and”; a condition that tells them apart may be missing. Equal values may be shown once.

How the values were obtained:
Assay in all cases: EMSA
Conditions in all cases: 25 mM Tris pH 8.0, 100 mM KCl, 10 mM MgCl2, 10% glycerol, 1 mM TCEP, +/- 5 mM ATP-MgOAc2, 20 pM dsRNA, 30 min at 4 C; 5% native PAGE in 0.5x TBE at 4 C
[1] = test system: AncD1ARTH/LOPH/DEUT HEL-DUF (reconstructed ancestor (arthropod/lophotrochozoan/deuterostome Dicer-1, ML tree))
[2] = test system: AncD1D2 HEL-DUF (reconstructed ancestor (animal Dicer-1/Dicer-2, ML tree))
[3] = test system: AncD1DEUT HEL-DUF (reconstructed ancestor (deuterostome Dicer-1, ML tree))
[4] = test system: AncD1LOPH/DEUT HEL-DUF (reconstructed ancestor (lophotrochozoan/deuterostome Dicer-1, ML tree))
[5] = test system: AncD1VERT HEL-DUF (reconstructed ancestor (vertebrate Dicer-1, ML tree))

Sequence: GGGAAGCUCAGAAUAUUGCACAAGUAGAGCUUCUCGAUCCCC / GGAUCGAGAAGCUCUACUUGUGCAAUAUUCUGAGCUUCCCGG [42-bp 3'ovr dsRNA]
- Kd [1]: 40.1 nM and 17.3 nM
- Kd [2]: 6.5 nM and 15.9 nM
- Kd [3]: 140 nM and 150 nM
- Kd [4]: 49 nM and 90.8 nM
- Kd [5]: 538 nM and 500 nM

Sequence: GGGAAGCUCAGAAUAUUGCACAAGUAGAGCUUCUCGAUCCCC / GGGGAUCGAGAAGCUCUACUUGUGCAAUAUUCUGAGCUUCCC [42-bp BLT dsRNA]
- Kd [1]: 23.8 nM and 17.5 nM
- Kd [2]: 3.4 nM and 6.4 nM
- Kd [3]: 145 nM and 132 nM
- Kd [4]: 38 nM and 60.9 nM
- Kd [5]: 502 nM and 592 nM
